This data set in a line: soluble on expression in E. coli; label from the status in PepcDB or PDB records.
As to “MEVVKMPFGVPGWKWKVGKFGYTVENEPNYEEIKAKAKEVLSRTTKGIAWRGHCGSLHIPLVFEGQIIGELWEDADPKEVEIGAYWFGKWGIKVQLVKDGRVIGFIWLA”, the “soluble on expression in E. coli” value is listed as “soluble”.
Then “MGSDKIHHHHHHMNAAENGLIPGAANSAGTKAYVARFAGTLADEHFSDFLNTRIKLSSLGVGTFPGGVDDVTDVAVAAIVARALQSGINVVDTGANYRLGRAGRAVGVGIAKAIAAGIQREEFFVVGKGGFLTFPDGRPEDPLTFFREEVAAKGLGKEEDLAQGVHCLSPEYIAWQLDTLRAQTGLGTLDVFLVDQPEVHIPLIGKEQMYRKLTDVFTMLEAAVQANKIRYYGISTFNACRVETDNTLFQSLTSLIGLAEKAAGQGNRHHLRVVQLPFNALMPEAYTRFSQVTGQGNIGSTIQAAFQLKLTIMASHPLGKGLLAREEVPSLQEAMPELADAAQRAIQFVRSTPGIGVTLVGLSTPLHLPDFLAVARQLPLSKERYLAMFEKEQ”, with “not soluble”.
Turning to “KPPAESASQTAVAITQSSVKTMAPALQAIVDQSWQLQLSASPEMAYGMGDKSAAGKLQDLSPEALAKLNQGQIAILVQLKALDRSKLSKEDKINAQILEDQLQNEVDLYKYKDYYLPITAESGFHAYISSIAQGRFNTQEDYQNYLDKLKALPNYFAQQTYWLKQGLKEGITPPKATLKGFENSISAYILPVEKSSYFKPFTQYPNHFTEAQKAQLTQQGRALVEQNVIPTYQAFYDFMTQEYMPNTRDNIAANSLPNGDAFYENRVRYYTTLDITSAEVHELGLKEVKRIRQEMEQVIKSVGFKGSFADFLYFLRTDPQFYATSADQLLKEAAFIAKKADATLPKYFGKLPRKPYGIAPVPAEIAPKYTSGRYSGSNRDDEPGYYWVNTYALDKRPLYELEALTLHEAVPGHHLQISLNSELSSQPDFRRYSYISAFGEGWGLYSEYLGLEAGFYQDPYSNFGRLTYEMWRAARLVVDTGMHAQGWSREQAIEFMANNTALSLHNVTTEIDRYITWPGQALSYKIGELTIKRLRAKAEQALGDKFDIRAFHDAVLENGSVPMSVLEQQINDFIEAKKAA”, the “soluble on expression in E. coli” value is “soluble”.
Then “MGSDKIHHHHHHMEHPENNEEYKGLVVNKGIEQPSSVNPYLKRKPKKRQLSVAEFVEGIVKGDVTILSQAVTLVESVKPEHQAVAQEVIEKCLPYSGNSIRVGISGVPGAGKSTSIDVFGLHVLEKGGKLAVLAIDPSSERSKGSILGDKTRMEQLSVHPQSFIRPSPSAGSLGGVARKTRETIVLCEAAGFDKIFVETVGVGQSETAVHSMVDFFLLIQLAGTGDELQGIKRGIMEMADGIVINKADGDNLEPAKLAASQFRNALHLFPAPESGWIPKVLTYSGFYNIGVKEIWDMVYEYIDFVKKNGYFDYRRNEQSKYWMYETINEQLRDSFYHNPRIEAMLQEKEQQVLQGNLTSFIAAKSLLDTYFDELKR”, with “not soluble”; and “MMKNPNDIGFIHDISSLDSLRQKAVKEGKDGEQEALHAAARQFESIFTSMMLKSMREANEGFESNIMNSQNEKFYRQMLDEQMASELSANGSMGLADMIVAQLTAGQGNDKSETAMRDAANSAVEYRRVDPKKAREIEKRLIESGELSRTSHTPAKFDSPESFVNSMKPYAEKAAKALGVEPSLLLAQAALETGWGQKVVQNARGSSNNLFNIKADRSWQGDKVTTQTLEFHDNTPVKETAAFRSYSNYQDSFNDYVRFLNDNPRYETALQQRGDSESFIRGIHRAGYATDPTYADKVLQVKQKIESM”, with “not soluble”.
Next, “MGSDKIHHHHHHMKVEITVSEDRMQAYVTLRKEGSSELPLTKEELLNALLSAGINHGIKEEIIEDLARSPVYNTPVLVAEGTPPVDGEDGRVELLKKIEFSSHEGEKIDLREIPAKQRVIVRKGETIARIIPPTPGKEGMDVFGNPVKPKPGRVPEYHLGYNVATKNNEIIATKSGILVIEPNGTIHVYDTLEVDNVDYSTGNIDFPGKVVVKGDVKPDFVVKAQEDITVKGVIEAATVISFNGSITAGGIKGRGKAFVKAKKTVKAVFIESAEVEAEEVQVEKNIENSAVKAINVVVSGKGGSIRGGITIAQVKVETYFLGSPIGVKTRVEVGVDPEINEKIKLLSAQISLDRENVQKLTKLLVELRKLQGMLKDKFPPDKEALLNKVNNTLINLRDSIQKNEGELKRLKEIAEEMAKNASVVVKEVVYSGVEIVMFERVFRVEKELAKAVFYYRDGEIRVGGYSA”: “not soluble”.
Then “MTESDLRTHATEIHEQFSDQLEIDVDDVIERLDTLVNDYQVPISEARRSVVNTYLDEAGMDRDQLGGGDGGGNEQVNVADVDAPEEWVDVRATVVELWEPRADAVAQVGLLGDETGTIKFTKWSKSDLPSLEEGKSYALRNVVTDEYQGRFSVKLNRTTTIEELDEAIEVGDDSVEADGALVDIQSGSGLIKRCPEDDCTRVLQNGRCSEHGEVEGEFDLRIKGVLDDGEEVTEVIFDEDATEELTGIALEEAKEMAMDALDTTVVADEMRQKILGRYYRVRGPTFGRYLLADEQERLTGAVDADEILIKARSILEHHHHHH”, with “not soluble”; and “MTAAIAAPAYDAIVIGSGIGGLVTATQLAAKGAKVLVLERYLIPGGSAGWFEREGYRFDFGASIIFGFGDPGTTNLLTPPLADVGQALETIPDPVQIHYHLPNQLDLKVHRDYEAFLQELIAQFPQEAEGIRRFYDECWQVFNCLNAMPLLSLEEPKYLFNVFLQHPLACLGLVKYLPQNVGDIARRYIRNPDLLKFIDMECYCWSVVPATMTPMINAGMVFSDRHYGGINYPKGGVGRIAEKLVAGLEAKGSSIRYKARVTRILTEKGRAIGVELADGEKLYAKRIISNATRWNTFGELLPPQQEPAQEQRWQQRYRQSPSFLSLHLGVKADLLPAGTECHHILLENWDELEVEQGTIFVSIPTLLDPSLAPPDRHIIHTFTPSWLGEWDNLSPSEYRDRKAAAAAKLIQRLEAIFPGLSSAIDYQEVGTPRTHRRFLGRQNGTYGPIPRRKLAGLLGMPFNRTAIPGLYCVGDSTFPGQGLNAVAFSGYACGHRVAADLGLVLEHHHHHH”, with “not soluble”.
For the sequence “MGSDKIHHHHHHMAFTESDVYNNEAFFEQYMKRRYRENSPNEALEKPAFFQLISDVKGKRILDLGCGDAKFGEELLEKGCHSYTGIEGSELMYEKAKKQLENKNGAVHFLNLKDYTYPPSTFDLVTSRLALHYIEHLPIIFQNVYETLKTNGTFTFSVQHPIITSSFESLQTSGKRTSWLVDDYFKLGKRVEPWIDQEVIKYHRTTEEYFTLLQQAGFTITNLKEATPDQTYFQNAEEYERRLRIPLFLLFSCRK”, the “soluble on expression in E. coli” value is “not soluble”.
Next, “SNAMSLEKLDTNTFEQLIYDEGKACLVMFSRKNCHVCQKVTPVLEELRLNYEESFGFYYVDVEEEKTLFQRFSLKGVPQILYFKDGEYKGKMAGDVEDDEVEQMIADVLED”: “soluble”; “MEQMRFKPRPFVKPVKFKCKFCLDCCKGRHVYLTLNDIKRLIDAGYDPQDFLTISIEDGKIRFVLSVREWDLGCVFQDPETGLCKVHPHRPLICRIYPFMVSKKPLGIKGEKKFEINGKSFWLYYDENCPGINDEDGDTITPEEILKLGIKFEEELEATDLDGFLKILRSLEHHHHHH”: “soluble”; “MDNRVREACQYISDHLADSNFDIASVAQHVCLSPSRLSHLFRQQLGISVLSWREDQRISQAKLLLSTTRMPIATVGRNVGFDDQLYFSRVFKKCTGASPSEFRAGCE”: “soluble”.
Regarding “MAMKERYLIIDGYNMIGQSPTLSAIAKENLEEARMQLIDAIANYNAVISDEIICVFDAYDQSGVEREYMYHGVKTIFTKEKETADSFIERYVYELYDKHTKHITVVTSDMSEQHAIFGSGAYRISSREMWRDLKENEIDVSKSLDDISENKPRTRIPLSSEILAEFEKIRRGHHKKLEHHHHHH”, the “soluble on expression in E. coli” value is “not soluble”.
Consider “MGSDKIHHHHHHMSIIDLTKLEQKVATMWDSILTNSPFIHEVLDGKATKALYAIYMTETYHYTKHNAKNQALVGIMGKDLPGKYLSFCFHHAHEEAGHELMALSDIASIGFDREDVLSSKPLPATETLIAYLYWISATGNPVQRLGYSYWAENVYGYIDPVLKAIQSTLDLTPQSMKFFIAHSKIDAKHAEEVNEMLHEVCKTQEDVDSVVAVMENSLVLTARILDDVWKEYQLFQSGASDRYAFLRDNA”, for which the “soluble on expression in E. coli” value is given as “not soluble”.
Then “MNAAQVQALIRMGLPMAEDIDFRVERLDERHALARIPFHGKLVRPGGTLSGPTIMALADAAMYAVILGRLGAVEMAVTSNLNINFLSKPRPEDLLAEASILKLGRRQVVCEVGVFSQSNEEDLVAHVTGTYALPLLEHHHHHH”, with “soluble”.
Then “GLGGEPVIVYADRGRSVIAAVEGRVEDLVRGDMIVVQADSNGEEVVYIASSPTEPPEVYRFKGGDVERVSSINRWVVEEFRLYKPRRVEVEAEGEVVEGWYIEPEGEGRKPLILFIHGGPKGMYGYGFYGEMQLFASEGFTVAYANPRGSDGYEEEFADIRGRYGDTDYKQLMKFLDAVVEGSDVDEGKMAVTGISYGGYMTNVIVTKTSRFRAAVSENGIADWIADFWAADIGYWFDPDQIGGTPLDNLEEYVKRSPAFHAKNVNTPVMLIHSMEDYRCFIDQALAMHTALKVNGKESFLVVFTKGSHGHSILASPRHRRKRLELKLKWIKEKLG”, with “not soluble”; and “MSPAFRAMDVEPRAKGVLLEPFVHQVGGHSCVLRFNETTLCKPLVPREHQFYETLPAEMRKFTPQYKGVVSVRFEEDEDRNLCLIAYPLKGDHGIVDIVDNSDCEPKSKLLRWTTNKKHHVLETEKTPKDWVRQHRKEEKMKSHKLEEEFEWLKKSEVLYYTVEKKGNISSQLKHYNPWSMKCHQQQLQRMKENAKHRNQYKFILLENLTSRYEVPCVLDLKMGTRQHGDDASEEKAANQIRKCQQSTSAVIGVRVCGMQVYQAGSGQLMFMNKYHGRKLSVQGFKEALFQFFHNGRYLRRELLGPVLKKLTELKAVLERQESYRFYSSSLLVIYDGKERPEVVLDSDAEDLEDLSEESADESAGAYAYKPIGASSVDVRMIDFAHTTCRLYGEDTVVHEGQDAGYIFGLQSLIDIVTEISEESGE”, with “not soluble”; and “MGSDKIHHHHHHMSDSPLIAFPRGCITGTFIRRVKRFSVEMETAGAGAPERVWIHSNNSGSMLGLLRAGAPVLASPAANPARKLKWTQELAGLDGMWVGVNTQTPNRLLEAAFHAGRLPWAAGYTMFRREARCGASRLDARMDAPQDSGLPPLWVECKNVTMVEDDVAAFPDAATERGQKHLREMMEIVRQGQRAAMFYLVQRADGHCFGPADYVDPVYAGLFYEAAAAGVEMYPHRALVSEHGIDLGPLLPVVPPPGV”, with “not soluble”.
Then “MDKTKLYPEAPLTSSQWGELDELVIETARRQLVGRRFIDLYGPLGEGVQSVANDIYMNPEQGDMSFHGKELSLSEPARRVHLTIPLLYKDFILYWRDIEQAKQLGSPIDFSAAANAAQQCALLEDDLIFNGSTEFDVPGIMNVKGKIAHIRSDWMKSGNAFTDVVEARNKLLQLGHTGPYALVLSPELYALIHRVHEGTHVLEIEHIRELMTAGIYQTPVIKGKRGVVIDTGRQNIDLAVAADMQTAFLDTENMNYLFRVYESVVPRIKRPSAICTLEDPNESA”, with “not soluble”; and “MADEIAKAQVARPGGDTIFGKIIRKEIPAKIIFEDDQCLAFHDISPQAPTHFLVIPKKHISQISAAEDADESLLGHLMIVGKKCAADLGLKKGYRMVVNEGSDGGQSVYHVHLHVLGGRQMNWPPG”, with “soluble”.
With “MGSDKIHHHHHHMCMYSATFTLEAITPVFMRGANQSKAEIRAASIKGLMRWWFRALSGSYFGNDVEGLRRVEEYVFGSTKRESRVVVEVVKEHVEERFCPLPMVWKKKKGVTTRVSQRAIAPGSKFTLLLTSDDEEVLKLACYSLIGLVYFGGIGFRCSRGAGSLKISSLKSDVQLIDLPKNKNQLGQMVNDLTVEIAKILKKTFLCDHENKNCTSYSSFWCFYLFLWGEKAELEEVYYRSNNLENERLTLLDLFEKEFKNKNNHLSNYGYRDFVFGLPRGTKKDRRASPIKVGITELSEKYHVRVSVFKTKIFKPGMNVKWDNIFVFLENIGAERIYPER”, the “soluble on expression in E. coli” value was “not soluble”.

The values are drawn from the DeepSol protein solubility set.
